The chains are these.
B1: anti-TRBV9-2 monoclonal antibody (antibody, human IgG1, kappa, V domains shown)
VH: QIQLVQSGPELREPGESVKLSCKASGYTFTDYLVHWVKQAPGKGLKWMGWINTYTGTPTYADDFEGRFVFSLEASASTANLQISNLKNEDTATYFCARSWRRGLRGIGFDYWGQGVFVTVSS
VL: DVQMTQSPYNLAASPGESVSINCKASKSINKYLAWYQQKPGKPNKLLIYDGSTLQSGIPSRFSGSGSGTDFTLTIRGLEPEDFGLYYCQQHNEYPPTFGAGTKLELKR
B2: anti-TRBV9-1 monoclonal antibody (antibody, human IgG1, kappa, V domains shown)
VH: B1 VH with I107L
VL: B1 VL
B3: anti-TRBV9-3 monoclonal antibody (antibody, human IgG1, kappa, V domains shown)
VH: B1 VH with L104I, I107L
VL: B1 VL
B4: anti-TRBV9-4 monoclonal antibody (antibody, human IgG1, kappa, V domains shown)
VH: B1 VH with L104I
VL: B1 VL

This note sets out measurements from US20200332003A1.

Substitutions are numbered along the chain they refer to. “And” between values parts separate entries of the source, which are not always exact repeats. Equal values may be shown once. Bounds are passed on as bounds.

For one test, the target named is T cell receptor with a beta-chain of the TRBV9 family on human peripheral blood T lymphocytes (human). Kind of test: cell sorting with the FITC-labelled antibody, then sequencing of TCR beta-chains.
As to B1, the percent of TCR beta-chain sequences of the sorted CD3+TRBV9+ fraction that belong to the TRBV9 family came out at 90%.

For a further test, the target named is TRBV9 + TRAV26 antigen. Kind of test: BLI (OctetRed 96), antigen immobilized on AR2G sensor, antibody 126-2 nM, 1:1 model.
In the case of B2, the Kd is 0.22 nM and 0.204 nM and 0.278 nM; the koff is 0.000114 s⁻¹ and 0.000113 s⁻¹ and 0.000183 s⁻¹; the kon was 559000 M⁻¹ s⁻¹ and 515000 M⁻¹ s⁻¹ and 658000 M⁻¹ s⁻¹.

Regarding B3, the Kd is 0.319 nM and 0.582 nM; the koff was 9.16e-05 s⁻¹ and 9.8e-05 s⁻¹; the kon is 287000 M⁻¹ s⁻¹ and 168000 M⁻¹ s⁻¹.

With B1, the kon is 447000 M⁻¹ s⁻¹ and 381000 M⁻¹ s⁻¹.

Regarding B4, the Kd was below 0.001 nM; the off-rate (koff) is below 1e-07 s⁻¹; the kon was 865000 M⁻¹ s⁻¹ and 579000 M⁻¹ s⁻¹.

The next test addresses TRBV9 + TRAV38 antigen. The description is as above.
In the case of B2, the dissociation constant Kd is 0.365 nM and 0.529 nM and 0.414 nM; the koff is 0.000205 s⁻¹ and 0.000196 s⁻¹ and 0.000183 s⁻¹; the kon was 562000 M⁻¹ s⁻¹ and 371000 M⁻¹ s⁻¹ and 441000 M⁻¹ s⁻¹.

For B3, the Kd is 0.311 nM and 0.4 nM; the off-rate (koff) is 9.61e-05 s⁻¹ and 9.16e-05 s⁻¹; the kon is 309000 M⁻¹ s⁻¹ and 229000 M⁻¹ s⁻¹.

On to B1, for which the Kd is below 0.001 nM; the off-rate (koff) is below 1e-07 s⁻¹; the association rate constant (kon) is 397000 M⁻¹ s⁻¹ and 289000 M⁻¹ s⁻¹.

As for B4, the Kd was below 0.001 nM; the koff is below 1e-07 s⁻¹; the kon was 713000 M⁻¹ s⁻¹ and 476000 M⁻¹ s⁻¹.

For a further test, the target named is T cell receptor with a beta-chain of the TRBV9 family on human peripheral blood T lymphocytes (human). The experiment in a line: flow cytometry, FITC-labelled antibody at 5 ng/ul and 0.5 ng/ul on human mononuclear blood cells.
In turn, B1 registered a percent of the CD3-positive fraction stained of 2.9%.

A further test has the same target. Kind of test: flow cytometry of human blood mononuclear cells, FITC-labelled antibody at 27 ng per test (lower plot), co-stained with anti-CD3-eFluor 405 [lower plot].
B2 came in with a % of cells in the CD3+TRBV9+ gate (small rectangle) of 3%.

Molecule B3 showed a % of cells in the CD3+TRBV9+ gate (small rectangle) of 2.6%.

Molecule B4 gave a % of cells in the CD3+TRBV9+ gate (small rectangle) of 2.4%.

Another test has the same target. The experiment in a line: flow cytometry of human blood mononuclear cells, FITC-labelled antibody at 270 ng per test (upper plot), co-stained with anti-CD3-eFluor 405 [upper plot]. Background: A flow cytometer gives signals particle by particle.
B2: the % of cells in the CD3+TRBV9+ gate (small rectangle) worked out at 1.6%.

Consider B3, for which the % of cells in the CD3+TRBV9+ gate (small rectangle) was determined as 3%.

As for B4, the % of cells in the CD3+TRBV9+ gate (small rectangle) is 2.9%.

Broadly, the Kd is the free concentration of one partner at which half of the binding sites on the other are occupied at equilibrium, for simple one-to-one binding. Usually koff stands for a measure of how fast the partners let go of each other. The term kon denotes the rate constant with which the complex forms.
